Data on one molecule can be found in patent US20220153864A1 (Pieris, published 2022).

The target of assay [1] is T1, human GPC3 expressed on cells (SK-Hep1::huGPC3; HepG2, Hep3B and MKN-45 tumor cells) (human, UniProt P51654 25-554).
T1 construct: whole, on cells; also called GPC3-positive tumor cells; human GPC3-expressing cells
Description: flow cytometry on HepG2 tumor cells (GPC3 high). The protocol: (§1) 5×10⁴ cells per well were incubated for 1 h in ice-cold PBS containing 5% fetal calf serum (PBS-FCS). A dilution series of the testing molecule were added to the cells and incubated for 1 h on ice. Cells were washed twice with PBS and then incubated with a goat anti-hlgG Alexa647-labeled antibody or goat anti-hlgG Alexa488-labeled antibody for 30 min on ice. Cells were subsequently washed and analyzed using iQue Flow cytometer (Intellicyte Screener). Mean geometric fluorescent signals were plotted and fitted with Graphpad software. The geometric means of the fluorescence intensity were used to calculate EC₅₀ values using a four-parameter logistic regression with bottom fixed to background.
(§2) For flow cytometric analysis, tumor cell lines with different GPC3 expression levels (high to moderate expression: HepG2>Hep3B>MKN-45) and GPC3 negative cell line NCI-N87 were incubated with an exemplary fusion protein SEQ ID NOs: 87 and 82, the GPC3 antibody or the CD137 specific lipocalin mutein (Fc fusion) as included in the fusion protein (SEQ ID NOs: 81 and 82 and SEQ ID NO: 98, respectively), a reference CD137 antibody SEQ ID NOs: 26 and 27, or an isotype control (SEQ ID NO: 24 and 25), and detected using a fluorescently labeled anti-human IgG antibody as described in Example 6.
On the technique in general: Flow cytometry measures light scatter and fluorescence of single cells or particles in a stream.

Assay [2] has as its target T2, huCD137-His (recombinant human CD137 with C-terminal polyhistidine tag, R&D Systems) (human, UniProt Q07011 24-186).
T2 construct: also called biotinylated huCD137-His; not shown: C-terminal polyhistidine tag
As to the kind of experiment: dual-binding ELISA: huCD137-His coated, fusion titrated, detection with biotinylated huGPC3. As for the experimental part: Recombinant huCD137-His (R&D Systems) in PBS (1 μg/mL) was coated overnight on microtiter plates at 4° C. The plates were washed five times after each incubation step with 100 μL PBS-0.05% T. The plates were blocked with PBS-0.1% T-2% BSA for 1 h at room temperature and subsequently washed again. Different concentrations of tested fusion proteins were added to the wells and incubated for 1 h at room temperature, followed by a wash step. Subsequently, biotinylated huGPC3 was added at a constant concentration of 1 μg/mL in PBS-0.1% T-2% BSA for 1 h. After washing, a 1:5000 dilution of ExtrAvidin-HRP (Sigma-Aldrich) in PBS-0.1% T-2% BSA was added to the wells and incubated for 1 h. After an additional wash step, fluorogenic HRP substrate (QuantaBlu, Thermo) was added to each well, and the fluorescence intensity was detected using a fluorescence microplate reader.
Exemplary dual binding data are shown in FIG. 3, together with the fit curves resulting from a 1:1 sigmoidal binding fit, where the EC₅₀ value and the maximum signal were free parameters, and the slope was fixed to unity.
In general terms: In an ELISA, binding on a coated surface is turned into a signal by an enzyme label.

Assay [3] concerns the target T2, huCD137-His (recombinant human CD137 …). Description: ELISA, huCD137-His coated, detection anti-NGAL-HRP. The protocol:
(§3) Recombinant huGPC3 (R&D Systems) at the concentration of 1 μg/mL in PBS was coated overnight on microtiter plates at 4° C. After five washes with 100 μL PBS-0.05% T (PBS supplemented with 0.05% (v/v) Tween 20), the plates were blocked with 2% BSA (w/v) in PBS-0.1% T (PBS-0.1% T-2% BSA) for 1 h at room temperature. After washing with 100 μL PBS-0.05% T (PBS supplemented with 0.05% (v/v) Tween 20) five times, exemplary fusion proteins (SEQ ID NOs: 87 and […] and CD137Ac1-Fusion 1 to 7) or the GPC3 antibody as include in the fusion proteins (SEQ ID NOs: 81 and 82) at different concentrations were added to the wells and incubated for 1 h at room temperature, followed by another wash step. Bound molecules under study were detected by incubation with 1:5000 diluted anti-human IgG Fc-HRP (Jackson Laboratory) in PBS-0.1% T-2% BSA. After an additional wash step, fluorogenic HRP substrate (QuantaBlu, Thermo) was added to each well and the fluorescence intensity was detected using a fluorescence microplate reader.
The same ELISA setup was also employed to determine the binding potency of fusion proteins to cynomolgus GPC3 and huCD137, where recombinant cyGPC3 (R&D Systems) or huCD137-His (recombinant human CD137 with C-terminal polyhistidine tag, R&D Systems) was instead coated on a microtiter plate. The testing agents were similarly titrated and bound agents were detected via anti-NGAL-HRP. […]

For assay [4], the target named is T1, human GPC3 expressed on cells …. As to the kind of experiment: flow cytometry on Hep3B tumor cells (GPC3 positive). As for the experimental part: as §1, §2
Assay [5] has as its target T3, recombinant human GPC3 (huGPC3) (R&D Systems) (human, UniProt P51654 25-559).
T3 construct: also called biotinylated huGPC3
As to the kind of experiment: ELISA, huGPC3 coated, detection anti-human IgG Fc-HRP. As for the experimental part: as §3
Exemplary results are depicted in FIG. 2A-2D, together with the fit curves resulting from a 1:1 binding sigmoidal fit, where the EC₅₀ value and the maximum signal were free parameters, and the slope was fixed to unity.

For assay [6], the target named is T4, human CD137 expressed on cells (Flp-In-CHO::huCD137; NFkB-luc2/CD137 Jurkat cells) (human, UniProt Q07011 24-255). Description: cell-based or functional assay.
T4 sequence (Q07011 24-255): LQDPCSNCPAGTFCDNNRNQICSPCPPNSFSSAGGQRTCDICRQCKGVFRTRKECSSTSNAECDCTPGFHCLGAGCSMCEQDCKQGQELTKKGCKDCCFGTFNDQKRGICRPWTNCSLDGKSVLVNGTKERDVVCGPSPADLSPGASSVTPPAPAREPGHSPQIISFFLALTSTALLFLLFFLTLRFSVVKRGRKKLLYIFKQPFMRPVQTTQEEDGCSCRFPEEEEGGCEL
For assay [7], the target named is T1, human GPC3 expressed on cells …. As to the kind of experiment: flow cytometry, SK-Hep1 cells transfected with human GPC3, detection labelled anti-human IgG, GeoMean RL1-H [upper graph]. The protocol:
(§4) For flow cytometric analysis, respective cell lines were incubated with an exemplary fusion protein (SEQ ID NOs: 87 and 82), the GPC3 antibody or the CD137 specific lipocalin mutein (Fc fusion) as included in the fusion protein (SEQ ID NOs: 81 and 82 and SEQ ID NO: 98, respectively), a reference CD137 antibody SEQ ID NOs: 26 and 27, or an isotype control (SEQ ID NOs: 24 and 25) and detected using a fluorescently labeled anti-human IgG antibody in FACS analysis as described in the following:
as §1

In assay [8] the target is T4, human CD137 expressed on cells …. Description: flow cytometry, CHO cells transfected with human CD137, detection labelled anti-human IgG, GeoMean BL1-H [lower graph]. The protocol: as §4, §1

T1 sequence (P51654 25-554 limits assumed): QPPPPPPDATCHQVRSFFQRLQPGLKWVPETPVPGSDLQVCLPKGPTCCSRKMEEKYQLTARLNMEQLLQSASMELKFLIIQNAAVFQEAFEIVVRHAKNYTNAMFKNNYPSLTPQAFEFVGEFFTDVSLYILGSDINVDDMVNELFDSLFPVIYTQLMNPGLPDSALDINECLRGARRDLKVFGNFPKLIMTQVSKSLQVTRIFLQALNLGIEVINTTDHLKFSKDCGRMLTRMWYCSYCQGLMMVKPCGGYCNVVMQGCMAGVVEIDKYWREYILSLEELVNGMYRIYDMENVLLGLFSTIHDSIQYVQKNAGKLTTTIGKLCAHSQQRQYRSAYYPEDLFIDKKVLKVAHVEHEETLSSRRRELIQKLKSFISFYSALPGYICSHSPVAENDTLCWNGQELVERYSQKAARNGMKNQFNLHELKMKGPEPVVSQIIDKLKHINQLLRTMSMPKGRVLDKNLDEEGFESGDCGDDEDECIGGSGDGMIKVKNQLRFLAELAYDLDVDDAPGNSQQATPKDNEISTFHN
T3 sequence (P51654 25-559 limits assumed): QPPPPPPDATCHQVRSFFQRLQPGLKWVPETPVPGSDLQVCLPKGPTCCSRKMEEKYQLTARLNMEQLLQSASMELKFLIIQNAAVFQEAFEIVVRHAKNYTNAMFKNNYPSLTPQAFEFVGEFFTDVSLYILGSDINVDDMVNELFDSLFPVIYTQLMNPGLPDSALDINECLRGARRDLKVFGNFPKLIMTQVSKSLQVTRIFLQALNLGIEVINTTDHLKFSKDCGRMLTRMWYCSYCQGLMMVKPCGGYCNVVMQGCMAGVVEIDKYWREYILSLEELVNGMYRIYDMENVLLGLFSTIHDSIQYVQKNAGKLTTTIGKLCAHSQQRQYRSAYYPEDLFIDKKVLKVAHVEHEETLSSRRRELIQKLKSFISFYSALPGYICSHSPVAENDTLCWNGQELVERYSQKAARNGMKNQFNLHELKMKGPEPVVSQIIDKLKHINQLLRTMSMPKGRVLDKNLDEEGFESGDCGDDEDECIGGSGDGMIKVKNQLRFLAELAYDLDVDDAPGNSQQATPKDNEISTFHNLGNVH

B1: fusion protein SEQ ID NOs: 87 and 82 (bispecific antibody, human IgG4 S228P, kappa, F234A L235A)
heavy: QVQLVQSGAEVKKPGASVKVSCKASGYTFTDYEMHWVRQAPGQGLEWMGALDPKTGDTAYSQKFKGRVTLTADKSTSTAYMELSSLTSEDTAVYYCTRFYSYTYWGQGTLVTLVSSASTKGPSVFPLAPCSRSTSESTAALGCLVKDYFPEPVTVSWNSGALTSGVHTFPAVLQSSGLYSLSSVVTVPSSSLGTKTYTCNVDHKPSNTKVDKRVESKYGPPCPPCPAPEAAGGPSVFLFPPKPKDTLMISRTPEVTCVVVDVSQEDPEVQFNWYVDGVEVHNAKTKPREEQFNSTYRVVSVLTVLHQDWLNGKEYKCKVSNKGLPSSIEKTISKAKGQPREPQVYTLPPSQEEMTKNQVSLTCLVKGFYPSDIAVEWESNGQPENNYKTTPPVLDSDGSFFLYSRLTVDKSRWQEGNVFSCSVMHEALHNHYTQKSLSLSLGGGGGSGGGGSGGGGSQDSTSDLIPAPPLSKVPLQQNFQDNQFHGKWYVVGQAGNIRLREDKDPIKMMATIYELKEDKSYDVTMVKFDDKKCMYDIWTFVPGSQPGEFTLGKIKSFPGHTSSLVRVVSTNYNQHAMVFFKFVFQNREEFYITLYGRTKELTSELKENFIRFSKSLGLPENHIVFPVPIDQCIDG
light: DVVMTQSPLSLPVTPGEPASISCRSSQSLVHSNRNTYLHWYLQKPGQSPQLLIYKVSNRFSGVPDRFSGSGSGTDFTLKISRVEAEDVGVYYCSQNTHVPPTFGQGTKLEIKRTVAAPSVFIFPPSDEQLKSGTASVVCLLNNFYPREAKVQWKVDNALQSGNSQESVTEQDSKDSTYSLSSTLTLSKADYEKHKVYACEVTHQGLSSPVTKSFNRGEC
notes: also called exemplary fusion protein
As a reminder, the EC50 is the concentration at which the effect is half-maximal. A word on the EC50 (read off the curve): it is the concentration giving half of the maximal effect. On to B1, for which the EC50 in assay [1] turned out to be 20.6 nM; in assay [2] it was 4.2 nM; in assay [3], 0.52 nM; in assay [4], 7.92 nM; in assay [5], 0.19 nM. The “EC50, CD137 Bioassay (NFkB-luc2/CD137 Jurkat cells co-cultured with Hep3B)” value in assay [6] was 0.78 nM. In assay [6], the “EC50, CD137 Bioassay (NFkB-luc2/CD137 Jurkat cells co-cultured with HepG2)” value was determined as 0.38 nM. The results for the “EC50 (read off the curve)” value in assay [7] and in assay [8] were around 5 nM and around 20 nM, respectively.
